Experimental data taken from the supplement of paper PMC10065799, “High-throughput profiling of sequence recognition by tyrosine kinases and SH2 domains using bacterial peptide display” (eLife, 2023).

Tests used:
AncSZ = experiment: phosphorylation enrichment, bacterial display (enrichment ratio); higher = better substrate or ligand; peptides without Tyr show the background
EPHB1 = EPHB1 (UniProt P54762); experiment: as above
EPHB2 = EPHB2 (UniProt P29323); experiment: as above
FGFR1 = FGFR1 (UniProt P11362); experiment: as above
FGFR3 = FGFR3 (UniProt P22607); experiment: as above
Fer (mouse) = experiment: as above
Fes = Fes (UniProt P07332); experiment: as above
Fyn = Fyn (UniProt P06241); experiment: as above
Hck = Hck (UniProt P08631); experiment: as above
Jak2 = Jak2 (UniProt O60674); experiment: as above
MERTK = MERTK (UniProt Q12866); experiment: as above
c-Abl (mouse) = experiment: as above
c-Src = experiment: as above
Grb2 SH2 = Grb2 SH2 (UniProt P62993); experiment: SH2 binding enrichment of the phosphorylated peptide, bacterial display (enrichment ratio); higher = better substrate or ligand; peptides without Tyr show the background
SHP2-C SH2 = experiment: as above
c-Src SH2 = experiment: as above
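For SH2 binding enrichment of the phosphorylated peptide, bacterial display in this document: peptide library displayed on the E. coli surface as eCPX fusions, selected cells deep-sequenced, score is each peptide's frequency after selection divided by its frequency in the input.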
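For phosphorylation enrichment, bacterial display in this document: 11-residue human phosphosite peptides and single-mutation variants displayed on the E. coli surface, counted by deep sequencing, each peptide's frequency after selection divided by its frequency in the unselected input library; frequency after pTyr selection over input frequency; kinase dosed for 20-30% of maximal phosphorylation in three min.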

Hck, sequence (P08631 whole entry, looked up): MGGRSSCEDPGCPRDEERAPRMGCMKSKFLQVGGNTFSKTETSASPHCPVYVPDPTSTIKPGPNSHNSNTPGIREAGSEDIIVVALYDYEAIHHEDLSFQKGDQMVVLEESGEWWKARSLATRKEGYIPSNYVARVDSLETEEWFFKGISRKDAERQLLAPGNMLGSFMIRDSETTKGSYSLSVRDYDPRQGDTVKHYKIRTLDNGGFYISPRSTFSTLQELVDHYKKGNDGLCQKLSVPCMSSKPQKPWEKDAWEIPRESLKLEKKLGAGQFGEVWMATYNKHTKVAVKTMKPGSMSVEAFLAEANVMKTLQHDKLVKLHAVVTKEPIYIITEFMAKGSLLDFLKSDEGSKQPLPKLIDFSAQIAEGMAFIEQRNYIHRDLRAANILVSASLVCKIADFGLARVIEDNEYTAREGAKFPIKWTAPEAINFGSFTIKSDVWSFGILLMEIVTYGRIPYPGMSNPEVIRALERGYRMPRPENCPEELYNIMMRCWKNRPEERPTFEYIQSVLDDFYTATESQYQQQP
EPHB2, sequence (P29323 whole entry, looked up): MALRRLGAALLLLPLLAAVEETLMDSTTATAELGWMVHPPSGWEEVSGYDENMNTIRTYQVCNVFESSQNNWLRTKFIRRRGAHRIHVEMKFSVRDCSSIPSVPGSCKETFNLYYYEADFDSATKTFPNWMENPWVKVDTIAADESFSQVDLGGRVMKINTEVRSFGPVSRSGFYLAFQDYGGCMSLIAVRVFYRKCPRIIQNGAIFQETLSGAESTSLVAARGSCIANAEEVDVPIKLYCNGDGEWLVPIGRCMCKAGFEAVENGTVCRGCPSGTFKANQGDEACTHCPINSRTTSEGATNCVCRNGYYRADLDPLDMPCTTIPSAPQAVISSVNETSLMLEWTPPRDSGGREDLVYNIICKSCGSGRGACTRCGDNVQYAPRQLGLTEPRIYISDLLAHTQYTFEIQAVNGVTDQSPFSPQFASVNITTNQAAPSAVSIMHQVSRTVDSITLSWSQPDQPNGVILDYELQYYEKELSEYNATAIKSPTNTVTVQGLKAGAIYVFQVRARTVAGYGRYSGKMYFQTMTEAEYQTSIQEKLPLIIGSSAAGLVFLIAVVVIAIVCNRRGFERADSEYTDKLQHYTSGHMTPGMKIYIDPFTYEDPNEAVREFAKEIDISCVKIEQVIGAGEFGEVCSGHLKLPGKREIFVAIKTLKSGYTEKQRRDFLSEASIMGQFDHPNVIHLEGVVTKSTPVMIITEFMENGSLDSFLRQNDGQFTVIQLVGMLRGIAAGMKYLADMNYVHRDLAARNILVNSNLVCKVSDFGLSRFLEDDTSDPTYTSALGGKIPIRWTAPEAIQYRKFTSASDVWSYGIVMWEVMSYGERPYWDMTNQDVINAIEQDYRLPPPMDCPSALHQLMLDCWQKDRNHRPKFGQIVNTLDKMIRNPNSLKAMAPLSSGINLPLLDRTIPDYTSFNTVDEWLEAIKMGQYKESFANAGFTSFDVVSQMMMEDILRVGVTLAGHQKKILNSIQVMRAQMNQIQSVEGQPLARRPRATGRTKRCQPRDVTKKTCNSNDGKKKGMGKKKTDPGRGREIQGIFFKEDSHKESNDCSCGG
Fyn, sequence (P06241 whole entry, looked up): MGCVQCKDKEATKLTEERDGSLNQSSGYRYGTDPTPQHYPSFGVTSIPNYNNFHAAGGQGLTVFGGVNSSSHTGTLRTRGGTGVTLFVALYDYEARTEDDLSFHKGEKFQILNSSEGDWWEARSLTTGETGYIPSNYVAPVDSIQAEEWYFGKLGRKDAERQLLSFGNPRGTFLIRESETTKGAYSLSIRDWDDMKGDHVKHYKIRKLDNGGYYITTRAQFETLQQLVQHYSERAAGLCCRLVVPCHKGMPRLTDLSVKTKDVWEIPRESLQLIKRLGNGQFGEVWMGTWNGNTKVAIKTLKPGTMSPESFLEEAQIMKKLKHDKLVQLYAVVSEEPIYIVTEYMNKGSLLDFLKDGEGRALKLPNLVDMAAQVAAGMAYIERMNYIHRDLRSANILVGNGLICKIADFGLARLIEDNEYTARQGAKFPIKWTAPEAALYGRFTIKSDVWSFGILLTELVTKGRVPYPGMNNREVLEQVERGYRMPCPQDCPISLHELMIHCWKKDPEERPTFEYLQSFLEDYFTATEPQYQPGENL
MERTK, sequence (Q12866 whole entry, looked up): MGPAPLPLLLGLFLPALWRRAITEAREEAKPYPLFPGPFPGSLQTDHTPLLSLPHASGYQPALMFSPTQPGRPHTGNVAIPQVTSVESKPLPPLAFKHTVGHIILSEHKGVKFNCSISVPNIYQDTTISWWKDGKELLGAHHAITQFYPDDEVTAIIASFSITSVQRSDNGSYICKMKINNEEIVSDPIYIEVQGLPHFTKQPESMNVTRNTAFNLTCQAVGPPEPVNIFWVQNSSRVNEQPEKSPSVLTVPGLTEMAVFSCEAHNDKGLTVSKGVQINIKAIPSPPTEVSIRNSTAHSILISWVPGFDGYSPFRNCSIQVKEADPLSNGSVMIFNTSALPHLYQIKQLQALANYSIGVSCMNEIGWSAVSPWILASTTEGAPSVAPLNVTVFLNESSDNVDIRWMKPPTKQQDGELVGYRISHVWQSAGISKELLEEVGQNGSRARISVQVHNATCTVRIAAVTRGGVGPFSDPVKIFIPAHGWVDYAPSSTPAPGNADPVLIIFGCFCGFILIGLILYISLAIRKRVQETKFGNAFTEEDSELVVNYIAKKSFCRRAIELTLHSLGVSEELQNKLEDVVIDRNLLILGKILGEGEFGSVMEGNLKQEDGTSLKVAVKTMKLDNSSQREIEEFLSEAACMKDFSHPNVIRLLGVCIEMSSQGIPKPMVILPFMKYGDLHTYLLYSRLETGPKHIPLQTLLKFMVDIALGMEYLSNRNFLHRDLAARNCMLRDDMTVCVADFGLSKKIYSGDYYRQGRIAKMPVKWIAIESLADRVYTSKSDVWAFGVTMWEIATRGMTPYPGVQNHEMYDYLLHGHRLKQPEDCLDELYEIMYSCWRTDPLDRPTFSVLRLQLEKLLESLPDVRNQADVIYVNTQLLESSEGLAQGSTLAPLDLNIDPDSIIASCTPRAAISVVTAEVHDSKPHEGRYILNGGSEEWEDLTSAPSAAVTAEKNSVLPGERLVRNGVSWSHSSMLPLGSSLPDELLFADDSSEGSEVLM
EPHB1, sequence (P54762 whole entry, looked up): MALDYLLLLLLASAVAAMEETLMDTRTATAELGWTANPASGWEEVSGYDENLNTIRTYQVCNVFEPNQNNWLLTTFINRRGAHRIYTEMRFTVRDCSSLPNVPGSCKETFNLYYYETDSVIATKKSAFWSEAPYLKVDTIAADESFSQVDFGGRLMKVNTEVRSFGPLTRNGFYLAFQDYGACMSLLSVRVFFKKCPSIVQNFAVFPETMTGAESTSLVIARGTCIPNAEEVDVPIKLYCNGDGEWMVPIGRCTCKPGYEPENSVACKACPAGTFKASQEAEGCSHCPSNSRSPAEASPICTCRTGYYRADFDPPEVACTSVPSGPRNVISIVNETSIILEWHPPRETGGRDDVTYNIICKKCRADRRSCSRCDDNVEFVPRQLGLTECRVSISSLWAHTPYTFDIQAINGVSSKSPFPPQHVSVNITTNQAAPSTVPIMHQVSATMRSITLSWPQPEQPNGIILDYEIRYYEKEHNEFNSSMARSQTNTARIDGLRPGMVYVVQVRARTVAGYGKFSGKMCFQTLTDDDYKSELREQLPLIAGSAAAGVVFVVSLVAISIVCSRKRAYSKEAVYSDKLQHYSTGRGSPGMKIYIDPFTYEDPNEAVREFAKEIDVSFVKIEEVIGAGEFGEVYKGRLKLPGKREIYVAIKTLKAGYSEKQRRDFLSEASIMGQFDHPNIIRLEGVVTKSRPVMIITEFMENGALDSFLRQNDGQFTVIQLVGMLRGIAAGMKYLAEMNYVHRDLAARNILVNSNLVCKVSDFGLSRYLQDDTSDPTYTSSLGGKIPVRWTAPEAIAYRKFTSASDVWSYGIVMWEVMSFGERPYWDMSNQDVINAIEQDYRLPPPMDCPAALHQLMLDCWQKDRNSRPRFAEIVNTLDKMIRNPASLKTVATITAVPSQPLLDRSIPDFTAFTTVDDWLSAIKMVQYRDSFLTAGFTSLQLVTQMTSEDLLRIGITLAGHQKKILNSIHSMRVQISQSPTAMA
Fes, sequence (P07332 whole entry, looked up): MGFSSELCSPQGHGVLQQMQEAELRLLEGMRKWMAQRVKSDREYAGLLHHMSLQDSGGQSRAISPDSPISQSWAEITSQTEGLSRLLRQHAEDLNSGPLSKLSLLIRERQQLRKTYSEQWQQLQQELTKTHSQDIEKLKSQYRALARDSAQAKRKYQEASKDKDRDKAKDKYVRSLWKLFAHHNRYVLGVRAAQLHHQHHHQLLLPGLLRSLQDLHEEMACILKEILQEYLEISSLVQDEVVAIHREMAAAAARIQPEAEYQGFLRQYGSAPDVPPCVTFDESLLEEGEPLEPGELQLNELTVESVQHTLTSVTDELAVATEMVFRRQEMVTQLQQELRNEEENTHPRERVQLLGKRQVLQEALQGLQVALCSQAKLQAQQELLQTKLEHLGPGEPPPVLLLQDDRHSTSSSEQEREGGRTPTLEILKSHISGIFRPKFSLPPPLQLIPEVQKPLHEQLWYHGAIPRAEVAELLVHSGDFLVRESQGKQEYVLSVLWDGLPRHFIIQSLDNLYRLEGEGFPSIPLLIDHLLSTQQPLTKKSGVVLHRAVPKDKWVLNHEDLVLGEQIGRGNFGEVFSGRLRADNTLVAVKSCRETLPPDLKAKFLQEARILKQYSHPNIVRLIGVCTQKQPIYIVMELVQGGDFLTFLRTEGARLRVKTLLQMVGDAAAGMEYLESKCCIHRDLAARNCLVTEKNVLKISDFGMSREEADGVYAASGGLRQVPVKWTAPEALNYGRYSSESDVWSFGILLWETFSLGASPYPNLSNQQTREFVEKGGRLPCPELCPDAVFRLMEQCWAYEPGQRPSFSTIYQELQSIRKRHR

Row | Sequence | SH2 binding enrichment (Grb2 SH2) | SH2 binding enrichment (SHP2-C SH2) | SH2 binding enrichment (c-Src SH2) | phosphorylation enrichment (AncSZ) | phosphorylation enrichment (EPHB1) | phosphorylation enrichment (EPHB2) | phosphorylation enrichment (FGFR1) | phosphorylation enrichment (FGFR3) | phosphorylation enrichment (Fer (mouse)) | phosphorylation enrichment (Fes) | phosphorylation enrichment (Fyn) | phosphorylation enrichment (Hck) | phosphorylation enrichment (Jak2) | phosphorylation enrichment (MERTK) | phosphorylation enrichment (c-Abl (mouse)) | phosphorylation enrichment (c-Src)
1 | TFGVAYRAKDK [CDK11B_Y453_V452A_YF] | 0.842 | 0.674 | 0.507 | 1.08 | 0.472 | 0.575 | 0.418 | 0.484 | 0.342 | 1.03 | 0.437 | 0.537 | 1.09 | 0.358 | 0.498 | 0.282
2 | TGGLEYIVPLM [CLCN4_Y548] | 0.869 | 0.675 | 0.52 | 2.14 | 0.797 | 0.787 | 3 | 2.29 | 0.379 | 0.965 | 0.436 | 0.42 | 2.32 | 0.364 | 0.937 | 0.417
3 | TGVRDYIHVVD [GALE_Y241] | 0.81 | 0.658 | 0.549 | 0.846 | 0.499 | 0.531 | 0.587 | 0.593 | 0.413 | 1.01 | 0.426 | 0.493 | 0.71 | 0.331 | 0.586 | 0.381
4 | TMKSRYMELYD [BBS2_Y644] | 0.809 | 1.2 | 4.93 | 0.812 | 0.535 | 0.608 | 0.489 | 0.556 | 0.426 | 0.868 | 0.475 | 0.694 | 0.808 | 0.456 | 0.624 | 0.73
5 | TPTFPYLLPKS [PLD2_Y580_YF] | 1.01 | 1.01 | 0.587 | 0.623 | 0.44 | 0.464 | 0.503 | 0.406 | 0.382 | 0.63 | 0.501 | 0.423 | 0.519 | 0.51 | 0.499 | 0.451
6 | TQNAVYSAANF [DDX5_Y535_G533A_YF] | 0.958 | 0.704 | 0.631 | 0.634 | 3.15 | 4.24 | 0.519 | 0.515 | 6.31 | 0.694 | 10.3 | 12 | 0.526 | 8.98 | 7.53 | 8.46
7 | TQNAVYSAANY [DDX5_Y535_G533A] | 0.88 | 0.956 | 0.708 | 0.643 | 2.46 | 3.99 | 0.586 | 0.619 | 2.8 | 0.924 | 8.89 | 11.1 | 0.527 | 5.57 | 4.56 | 6.96
8 | TSIGNYYKPWF [DHCR24_Y299_N294T] | 0.844 | 2.71 | 1.27 | 1 | 16.3 | 15.7 | 5.29 | 4.18 | 0.438 | 0.868 | 0.59 | 1.03 | 11.5 | 10.1 | 14.6 | 0.707
9 | TSNQEYLYLSM [FGFR1_Y766_D768Y] | 0.812 | 0.553 | 0.447 | 2.64 | 2.28 | 1.83 | 12.5 | 8.18 | 0.845 | 1.31 | 2.08 | 2.67 | 3.5 | 5.28 | 0.975 | 2.88

Second part, led by results:

Row | SH2 binding enrichment (Grb2 SH2) | SH2 binding enrichment (SHP2-C SH2) | SH2 binding enrichment (c-Src SH2) | Sequence | phosphorylation enrichment (AncSZ) | phosphorylation enrichment (EPHB1) | phosphorylation enrichment (EPHB2) | phosphorylation enrichment (FGFR1) | phosphorylation enrichment (FGFR3) | phosphorylation enrichment (Fer (mouse)) | phosphorylation enrichment (Fes) | phosphorylation enrichment (Fyn) | phosphorylation enrichment (Hck) | phosphorylation enrichment (Jak2) | phosphorylation enrichment (MERTK) | phosphorylation enrichment (c-Abl (mouse)) | phosphorylation enrichment (c-Src)
10 | 0.913 | 0.769 | 2.11 | TEQDPYNNIVH [MMUT_Y364_R369H] | 1.05 | 0.475 | 0.679 | 0.501 | 0.599 | 0.544 | 0.965 | 0.572 | 0.586 | 0.788 | 0.512 | 0.851 | 0.515
11 | 0.484 | 0.624 | 0.478 | TEVIWYKGDEE | 1.72 | 0.516 | 0.606 | 0.445 | 0.704 | 0.393 | 1.55 | 0.445 | 0.335 | 1.45 | 0.51 | 0.691 | 0.601
12 | 0.965 | 0.726 | 0.463 | TGDFGYRAPGF [TNS2_Y668_YF] | 0.724 | 0.501 | 0.414 | 0.542 | 0.601 | 0.44 | 0.784 | 0.6 | 0.409 | 0.724 | 0.542 | 1.02 | 0.593
13 | 0.87 | 0.753 | 0.492 | TGNGYYFRVFS [MYBPC3_Y1136_I1131T] | 1.04 | 0.707 | 0.657 | 0.542 | 0.766 | 0.594 | 1.3 | 0.334 | 0.436 | 1.41 | 0.353 | 0.818 | 0.332
14 | 0.905 | 0.66 | 0.417 | TKDTFYKQPVF [GBA_Y451_M455V] | 0.634 | 0.409 | 0.523 | 0.406 | 0.473 | 0.308 | 0.766 | 0.386 | 0.312 | 0.695 | 0.417 | 0.764 | 0.421
15 | 0.586 | 0.52 | 18.6 | TLERHYEELQA [SPTBN2_Y834] | 1.04 | 0.648 | 0.522 | 0.472 | 0.677 | 1.7 | 1.06 | 0.541 | 0.591 | 0.947 | 0.578 | 0.836 | 0.505
16 | 0.674 | 0.591 | 0.586 | TLQSMYGCDLG [HLA-B_Y123_V127L] | 1.18 | 0.836 | 0.522 | 0.491 | 0.858 | 0.659 | 1.38 | 0.576 | 0.591 | 1.06 | 0.518 | 1.06 | 0.597
17 | 0.708 | 0.91 | 0.687 | TNFSLYLRSLE [MTM1_Y71_R69S_YF] | 1.2 | 0.754 | 0.491 | 0.41 | 0.744 | 0.438 | 1.38 | 0.368 | 0.432 | 1.36 | 0.42 | 0.908 | 0.385
